Assay results: paper PMC11941939, “Tackling Prostate Cancer with Theranostic E5B9-Bombesin Target Modules (TMs): From Imaging to Treatment with UniCAR T-Cells” (International Journal of Molecular Sciences, 2025)

Legend:
[1] = Dynamic PET imaging, tumor uptake in LNCaP xenografts; type: in vivo, mouse; conditions: male, BALB/c Nude, mouse, LNCaP xenograft tumor, iv, total radioactivity; LNCaP tumor-bearing mice, PET, 60 min p.i., i.v., mean ± SEM, n = 3-4; read-out: SUVmean,60min tumor uptake
Method: (§1) For PET experiments and as prostate cancer xenograft models, male PC3 and LNCaP tumor-bearing BALB/c Nude mice were used (body weight: 22−24 g, Charles River Laboratories, Saint-Constant, QC, Canada). To generate the tumor xenografts, about 5−6 × 10^6 PC3 cells in 100 μL of PBS or 20−25 × 10^6 LNCaP cells in 200 μL of PBS/Matrigel (50/50) were subcutaneously injected into the left shoulder of male BALB/c Nude mice. For the androgen-dependent LNCaP model, a 1.5 mg pellet containing dehydroepiandrosterone DHEA (60-day release; Innovative Research of America, Sarasota, FL, U.S.A.) was implanted subcutaneously into the upper right flank shortly before LNCaP cell injection. PC3 tumors and LNCaP tumors reached sizes of ∼300−500 mm^3 after 3−5 weeks and 6−8 weeks, respectively, and were used for the in vivo experiments. PET imaging of E5B9-^68Ga-NOTA-BBN2 monomeric and dimeric TMs was performed on an INVEON® PET/CT scanner (Siemens Preclinical Solutions, Knoxville, TN, USA). Prior to radiotracer injection, mice were anesthetized through inhalation of isoflurane in 40% oxygen/60% nitrogen (gas flow 1 L/min), and body temperature was kept constant at 37 °C. The mice were placed in a prone position in the center of the field of view. A transmission scan for attenuation correction was not acquired. Mice were injected with 4−8 MBq of E5B9-^68Ga-NOTA-BBN2 or E5B9-^68Ga-NOTA-(BBN2)2 in 150 μL 10% EtOH/saline solution through a tail vein catheter. For blocking studies, PC3- and LNCaP-tumor-bearing […] mice were pre-dosed i.v. with 300 μg of Ava-BBN2 (15 min prior to radiotracer injection) in 50 uL saline. Data acquisition was performed over 60 min in 3D list mode. The dynamic list mode data were sorted into sinograms with 54 time frames (10 × 2, 8 × 5, 6 × 10, 6 × 20, 8 × 60, 10 × 120, 6 × 300 s). The frames were reconstructed using maximum a posteriori (MAP) as the reconstruction mode. No correction for partial volume effects was applied. The image files were processed using the ROVER v2.0.51 software (ABX GmbH, Radeberg, Germany). […] ROIs covered all visible tumor mass of the subcutaneous tumors, and the thresholds were defined by 50% of the maximum radioactivity uptake level. Mean standardized uptake values [SUVmean = (activity/mL tissue)/(injected activity/body weight), […]] were calculated for each ROI, and time−activity curves (TACs) were generated. For each experimental group (different radiotracers and mouse tumor models as well as control and blocking experiments), n = 3–6 mice were measured. […] Blocking experiments were conducted in the same mice: first, a control scan was measured and then repeated 1–2 days after in the presence of a blocking concentration of 300 μg of Ava-BBN2. All semi-quantified PET data are presented as means ± SEM. […]

LNCaP tumors = test: as above; type: in vivo, mouse; conditions: LNCaP tumors, pre-dosing i.v. with 300 µg Ava-BBN2 15 min before radiotracer, n = 3, p < 0.01
Method: as §1

[2] = In vivo metabolic stability in venous blood plasma; set-up: species or system mouse; conditions: BALB/c mice, i.v., 60 min p.i., radio-HPLC, mean ± SEM, n = 3, listed as dimeric TM
Method: For metabolic stability studies in vivo, normal male BALB/c mice (body weight: 23−26 g, Charles River Laboratories, Saint-Constant, QC, Canada) were anesthetized through inhalation of isoflurane in 40% oxygen/60% nitrogen (gas flow 1 L/min) prior to i.v. radiotracer injection via the tail vein. Mice were injected with 28-50 MBq of E5B9-^68Ga-NOTA-BBN2 TM, E5B9-^68Ga-NOTA-(BBN2)2 TM, or ^68Ga-NOTA-Ava-Glu-(BBN2)2 dimer in 150 μL of 10% EtOH/saline. Venous blood samples were collected at 5, 15, 30, and 60 min post-injection via the mouse tail vein and further processed. Blood cells were separated by centrifugation (13,000 rpm × 5 min). The supernatant was removed, and the contained proteins were precipitated by the addition of 2 volume parts of methanol (2 vol of MeOH/1 vol of the sample). Another centrifugation step (13,000 rpm × 5 min) was performed to obtain plasma. The clear plasma supernatant was injected into a Shimadzu HPLC system. The samples were analyzed using a Phenomenex Luna 10u C18(2) 100A, 250 × 4.6 mm column, at a constant flow rate of 1 mL/min, and the following gradient with water/0.2% TFA as solvent A and acetonitrile as solvent B: 0−3 min 10% B, 10 min 30% B, 17 min 50% B, 23 min 70% B, and 27−30 min 90% B. For each radiotracer (monomers and dimers with and without E5B9) blood samples from n = 3 mice were analyzed. […]

[3] = Dynamic PET imaging, tumor uptake in PC3 xenografts; type: in vivo, mouse; conditions: male, BALB/c Nude, mouse, PC3 xenograft tumor, iv, total radioactivity; PC3 tumor-bearing mice, PET, 60 min p.i., i.v., mean ± SEM, n = 4-6; read-out: SUVmean,60min tumor uptake
Method: as §1

CC[C@H](C)[C@@H](CCC(=O)N[C@H](C(N)=O)C(C)(C)C)NC(=O)[C@H](Cc1c[nH]cn1)NC(=O)CN(C)C(=O)[C@@H](NC(=O)[C@H](C)NC(=O)[C@H](Cc1c[nH]c2ccccc12)NC(=O)[C@H](CCC(N)=O)NC(=O)CCCCNC(=O)CC[C@H](NC(=O)[C@H](CCCCn1nnc2c1-c1ccccc1CN(C(=O)CCNC(=O)CCOCCOCCOCCOCCNC(=O)CCN1C(=O)CC(SC[C@H](NC(=O)[C@H](Cc3ccc(O)cc3)NC(=O)[C@H](CCC(=O)O)NC(=O)[C@H](CC(=O)O)NC(=O)[C@@H](NC(=O)[C@@H](NC(=O)[C@H](CCC(=O)O)NC(=O)[C@@H]3CCCN3C(=O)[C@H](CC(C)C)NC(=O)[C@@H]3CCCN3C(=O)[C@H](CCCCN)NC(=O)[C@@H](N)CO)C(C)C)[C@@H](C)O)C(=O)O)C1=O)c1ccccc1-2)NC(=O)CCCCNC(=S)Nc1ccc(C[C@H]2CN(CC(=O)O)CCN(CC(=O)O)CCN2CC(=O)O)cc1)C(=O)NCCCCC(=O)N[C@@H](CCC(N)=O)C(=O)N[C@@H](Cc1c[nH]c2ccccc12)C(=O)N[C@@H](C)C(=O)N[C@H](C(=O)N(C)CC(=O)N[C@@H](Cc1c[nH]cn1)C(=O)N[C@H](CCC(=O)N[C@H](C(N)=O)C(C)(C)C)[C@@H](C)CC)C(C)C)C(C)C (stereo partly shown) [dimeric ^68Ga-(BBN2)2 TM, metal not drawn]
SUV at 1 h [1]: 0.38 ± 0.03 SUV
in vivo blocking of tumor uptake (LNCaP tumors): 43 ± 3%
intact 68Ga-peptide remaining [2]: 93 ± 1%
SUV at 1 h [3]: 0.51 ± 0.1 SUV
